Assay in all cases: high-throughput RNA pulldown from lysate on Ni-NTA beads; HRP: 50 mM Tris pH 8, 150 mM NaCl, 1 mM beta-mercaptoethanol, 50 ug/ml BSA, 3 ug/ml yeast RNA, 0.5% heparin; ITC and FP: Tris pH 8, 200 mM KCl, 5% glycerol; MST: 50 mM Tris pH 8, 200 mM NaCl, 1 mM DTT, BSA, heparin, 0.05% Tween 20
Holding throughout (details): tags: N-terminal His-eGFP

The target of series [1] is T1, GFP-9S library array, motif 4 ND D124G (synthetic construct, D124G).
T1 chain: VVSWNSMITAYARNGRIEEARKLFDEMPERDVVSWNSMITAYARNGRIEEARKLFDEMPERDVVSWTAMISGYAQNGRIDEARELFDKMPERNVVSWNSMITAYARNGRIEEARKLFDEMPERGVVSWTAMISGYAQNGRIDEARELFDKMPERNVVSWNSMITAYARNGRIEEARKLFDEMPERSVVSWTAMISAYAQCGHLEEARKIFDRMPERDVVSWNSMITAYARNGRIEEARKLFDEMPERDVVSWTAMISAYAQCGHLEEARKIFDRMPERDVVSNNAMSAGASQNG

The target of series [2] is T2, GFP-9S library array, motif 4 ND N98A;D124R (synthetic construct, N98A;D124R).
T2 chain: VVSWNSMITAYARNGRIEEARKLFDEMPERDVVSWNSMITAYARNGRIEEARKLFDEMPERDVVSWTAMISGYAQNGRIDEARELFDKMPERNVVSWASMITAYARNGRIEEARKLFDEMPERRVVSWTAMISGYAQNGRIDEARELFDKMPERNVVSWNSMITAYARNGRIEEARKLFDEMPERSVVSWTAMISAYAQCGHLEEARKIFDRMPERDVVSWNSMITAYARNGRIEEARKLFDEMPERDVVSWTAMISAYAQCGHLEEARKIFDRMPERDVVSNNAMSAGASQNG

The target in series [3] is T3, GFP-9S library array, motif 4 ND N98L;D124A (synthetic construct, N98L;D124A).
T3 chain: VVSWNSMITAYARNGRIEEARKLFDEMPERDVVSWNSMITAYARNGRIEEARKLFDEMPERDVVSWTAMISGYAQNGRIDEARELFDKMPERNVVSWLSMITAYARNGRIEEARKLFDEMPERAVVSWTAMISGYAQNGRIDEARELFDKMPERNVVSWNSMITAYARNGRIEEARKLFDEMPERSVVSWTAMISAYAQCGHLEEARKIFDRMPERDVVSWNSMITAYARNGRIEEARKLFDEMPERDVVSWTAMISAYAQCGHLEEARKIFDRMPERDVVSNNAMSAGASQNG

For series [4], the target named is T4, GFP-9S library array, motif 4 ND N98T;D124C (synthetic construct, N98T;D124C).
T4 chain: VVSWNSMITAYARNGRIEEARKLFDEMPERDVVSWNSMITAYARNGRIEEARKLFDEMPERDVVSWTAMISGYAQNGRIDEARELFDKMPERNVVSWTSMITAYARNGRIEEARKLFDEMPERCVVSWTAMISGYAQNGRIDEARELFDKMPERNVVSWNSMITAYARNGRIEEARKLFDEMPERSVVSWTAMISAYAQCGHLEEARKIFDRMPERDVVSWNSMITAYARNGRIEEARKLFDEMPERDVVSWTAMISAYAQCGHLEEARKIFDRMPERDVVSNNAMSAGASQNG

Series [5] has as its target T5, GFP-9S library array, motif 4 ND N98R;D124T (synthetic construct, N98R;D124T).
T5 chain: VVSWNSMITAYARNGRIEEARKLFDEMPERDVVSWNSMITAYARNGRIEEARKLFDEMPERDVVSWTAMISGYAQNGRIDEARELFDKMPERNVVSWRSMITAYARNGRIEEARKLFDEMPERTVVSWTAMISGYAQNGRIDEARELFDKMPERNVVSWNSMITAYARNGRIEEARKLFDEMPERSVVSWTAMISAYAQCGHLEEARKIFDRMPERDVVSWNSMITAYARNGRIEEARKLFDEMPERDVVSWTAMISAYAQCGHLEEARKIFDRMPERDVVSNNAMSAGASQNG

B1: IR-rpoA-U (ssRNA)
RNA: AUUAUACGUGA
Take B1: the Kd in series [1] (label: 5' IRDye 800CW) worked out at 30.7 nM; in series [2] (label: 5' IRDye 800CW), 160 nM; in series [3] (label: 5' IRDye 800CW), 43.4 nM; in series [4] (label: 5' IRDye 800CW) it was 119 nM; in series [5] (label: 5' IRDye 800CW), 85.9 nM.

B2: Cy5-rpoA-G (ssRNA)
RNA: AUUAGACGUGA
As for B2, the Kd in series [1] (label: 5' Cy5) came out at 445 nM; in series [2] (label: 5' Cy5), 166 nM; in series [3] (label: 5' Cy5), 71.4 nM; in series [4] (label: 5' Cy5), 8.1 nM; in series [5] (label: 5' Cy5), 98.5 nM.

B3: Cy5-rpoA (ssRNA)
RNA: AUUACACGUGA
B3: the Kd was 30.7 nM in series [1] (label: 5' Cy5); 178 nM in series [2] (label: 5' Cy5); 47.4 nM in series [3] (label: 5' Cy5); 330 nM in series [4] (label: 5' Cy5); 74.7 nM in series [5] (label: 5' Cy5).

B4: IR-rpoA-A (ssRNA)
RNA: AUUAAACGUGA
As for B4, the Kd in series [1] (label: 5' IRDye 800CW) was 136 nM; in series [2] (label: 5' IRDye 800CW) it was 254 nM; in series [3] (label: 5' IRDye 800CW), 90.9 nM; in series [4] (label: 5' IRDye 800CW), 88.6 nM; in series [5] (label: 5' IRDye 800CW) it was 173 nM.

Usually Kd stands for the free concentration of one partner at which half of the binding sites on the other are occupied at equilibrium, for simple one-to-one binding. A lower Kd goes with higher affinity.

The values are drawn from paper PMC8809517, “Cofactor-independent RNA editing by a synthetic S-type PPR protein”.
